The term stoichiometry N denotes a count of units in the complex or per binding partner.

The assay deals with GOLD domain of human TMED1 (p24γ1), signal peptide-free (human) (UniProt Q13445). In words: SEC. (In general: Size exclusion chromatography separates by hydrodynamic size, large species first.)

Regarding “GOLD domain of human TMED1 (p24γ1), signal peptide-free (from UniProt Q13445 24-130) (domain or fragment)”, the stoichiometry N came to 2.

The values are drawn from doi:10.1101/2021.02.13.431076.
